This is an account of results in the Human Domainome abundance scans (Beltran et al. 2025).

± gives the uncertainty stated by the source.

B1: Homeobox protein cut-like 2, residues 895 to 963; numbered along this chain, O14529 (parent)
chain: EVDTLELTRQVKEKLAKNGICQRIFGEKVLGLSQGSVSDMLSRPKPWSKLTQKGREPFIRMQLWLSDQL

The variants in this data set derive from B1. The data set is described as follows: abundance fitness (aPCA) (normalised: wild type 0, dead -1); higher = more abundant; growth selection in yeast, the domain comes from the species named. To be noted: Homo sapiens.
Turning to EVDTLALTRQVKEKLAKNGICQRIFGEKVLGLSQGSVSDMLSRPKPWSKLTQKGREPFIRMQLWLSDQL [E6A], the abundance fitness is -0.123 ± 0.052.

For EVDTLTLTRQVKEKLAKNGICQRIFGEKVLGLSQGSVSDMLSRPKPWSKLTQKGREPFIRMQLWLSDQL [E6T], the abundance fitness is -0.129 ± 0.08.

As for EVDTLMLTRQVKEKLAKNGICQRIFGEKVLGLSQGSVSDMLSRPKPWSKLTQKGREPFIRMQLWLSDQL [E6M], the abundance fitness was -0.192 ± 0.035.

Turning to EVDTLELTRQVKEKLAKNGICQRIFGEKVLGLSQGSVSDMLSRPKPWSKLTQKGREPFIRMQMWLSDQL [L63M], the abundance fitness came out at 0.041 ± 0.047.

Take EVDTLELTRQVKEKLAKNGICQRIFGEKVLGLSQGSVSDMLSRPKPWSKLTQKGREPFIRMQYWLSDQL [L63Y]: the abundance fitness is -0.115 ± 0.049.

As for EVDTFELTRQVKEKLAKNGICQRIFGEKVLGLSQGSVSDMLSRPKPWSKLTQKGREPFIRMQLWLSDQL [L5F], the abundance fitness worked out at 0.025 ± 0.042.

Consider EVDTYELTRQVKEKLAKNGICQRIFGEKVLGLSQGSVSDMLSRPKPWSKLTQKGREPFIRMQLWLSDQL [L5Y], for which the abundance fitness is -0.033 ± 0.051.

For the variant EVDTGELTRQVKEKLAKNGICQRIFGEKVLGLSQGSVSDMLSRPKPWSKLTQKGREPFIRMQLWLSDQL [L5G], the abundance fitness is -0.061 ± 0.03.

On to EVDTLELTRQVKEKLAKNGICQRIFGEKVLCLSQGSVSDMLSRPKPWSKLTQKGREPFIRMQLWLSDQL [G31C], for which the abundance fitness was -0.257 ± 0.044.

As for EVDTLELTRQVKEKLAKNGICQRIFGEKVLSLSQGSVSDMLSRPKPWSKLTQKGREPFIRMQLWLSDQL [G31S], the abundance fitness was -0.134 ± 0.032.

Consider EVDTLELTRQVKEKLAKNGICQRIFGEKVLTLSQGSVSDMLSRPKPWSKLTQKGREPFIRMQLWLSDQL [G31T], for which the abundance fitness is -0.274 ± 0.039.

In the case of EVDTLELTRQVKQKLAKNGICQRIFGEKVLGLSQGSVSDMLSRPKPWSKLTQKGREPFIRMQLWLSDQL [E13Q], the abundance fitness was -0.248 ± 0.053.

With EVDTLELTRQVKEKLAKCGICQRIFGEKVLGLSQGSVSDMLSRPKPWSKLTQKGREPFIRMQLWLSDQL [N18C], the abundance fitness was -0.354 ± 0.091.

With EWDTLELTRQVKEKLAKNGICQRIFGEKVLGLSQGSVSDMLSRPKPWSKLTQKGREPFIRMQLWLSDQL [V2W], the abundance fitness was -0.137 ± 0.045.

For the variant EVDTLELTRQVKEKLAKNGICQRIFGEKFLGLSQGSVSDMLSRPKPWSKLTQKGREPFIRMQLWLSDQL [V29F], the abundance fitness is -0.174 ± 0.048.

In the case of EVDTLELTRQVKEKLAKNGICQRIFGEKDLGLSQGSVSDMLSRPKPWSKLTQKGREPFIRMQLWLSDQL [V29D], the abundance fitness was -0.476 ± 0.07.

With EVDTLELTRQVKEKLAKNGICQRIFGEKVLGLSQGSVSDMLSRQKPWSKLTQKGREPFIRMQLWLSDQL [P44Q], the abundance fitness was -0.135 ± 0.044.

For EVDTLELTRQVKEKLAKNGICQRIFGEKVTGLSQGSVSDMLSRPKPWSKLTQKGREPFIRMQLWLSDQL [L30T], the abundance fitness was -0.536 ± 0.11.

As to EVDTLELTRQVKEKLAKNGICQRIFGEKVAGLSQGSVSDMLSRPKPWSKLTQKGREPFIRMQLWLSDQL [L30A], the abundance fitness was -0.447 ± 0.083.

EVDTLELTRQVKEKLAKNGICQRIFGEKVQGLSQGSVSDMLSRPKPWSKLTQKGREPFIRMQLWLSDQL [L30Q]: the abundance fitness was -0.423 ± 0.061.

Take EVDTLELTRQVKEKLAKNGICQRIFGEKVKGLSQGSVSDMLSRPKPWSKLTQKGREPFIRMQLWLSDQL [L30K]: the abundance fitness was -0.178 ± 0.038.

Turning to EVDTLETTRQVKEKLAKNGICQRIFGEKVLGLSQGSVSDMLSRPKPWSKLTQKGREPFIRMQLWLSDQL [L7T], the abundance fitness was -0.077 ± 0.041.

As to EVDTLELTRQVKEKLAKNGICQRIFGEKVLGLSQGSVSDMMSRPKPWSKLTQKGREPFIRMQLWLSDQL [L41M], the abundance fitness is -0.214 ± 0.032.

Take EVDTLELTRQVKEKLAKNGICQRIFGEKVLGLSQGSVSDMASRPKPWSKLTQKGREPFIRMQLWLSDQL [L41A]: the abundance fitness was -0.223 ± 0.079.

Consider EVDTLELTRQVKEKLAKNGICQRIFGEKVLGLSQGSVSDPLSRPKPWSKLTQKGREPFIRMQLWLSDQL [M40P], for which the abundance fitness was -0.251 ± 0.037.

With EVKTLELTRQVKEKLAKNGICQRIFGEKVLGLSQGSVSDMLSRPKPWSKLTQKGREPFIRMQLWLSDQL [D3K], the abundance fitness is -0.203 ± 0.032.

For EVDDLELTRQVKEKLAKNGICQRIFGEKVLGLSQGSVSDMLSRPKPWSKLTQKGREPFIRMQLWLSDQL [T4D], the abundance fitness is -0.092 ± 0.066.

Take EVDTLELTRQVKEKLAKNGICQRIFGEKVLGLSQGSVSDMLSRPKPWSKLTQKHREPFIRMQLWLSDQL [G54H]: the abundance fitness is -0.215 ± 0.074.

EVDTLELTRQVKEKLAKNGICQRIFGEKVLGLSQGSVSDMLSRPKPWSKLTQKGREKFIRMQLWLSDQL [P57K]: the abundance fitness is -0.058 ± 0.066.

Turning to EVDTLELTRQVKEKLAKNGICQRIFGEKVLGLSQGSVSDMLSRPKPWSKLTQKGRESFIRMQLWLSDQL [P57S], the abundance fitness is -0.034 ± 0.033.

For the variant EVDTLELTRQVKEKLAKNGICQRIFGEKVLGLSQGSVSDMLSRPKPWSKLTQKGRETFIRMQLWLSDQL [P57T], the abundance fitness came out at 0.017 ± 0.033.

In the case of EVDTLELTRQVKEKLAKNGICQRIFGEKVLGLSQGSVSDMLSRPKPWSKLTQKGRYPFIRMQLWLSDQL [E56Y], the abundance fitness was -0.248 ± 0.079.

On to EVDTLELTRQVKEKLALNGICQRIFGEKVLGLSQGSVSDMLSRPKPWSKLTQKGREPFIRMQLWLSDQL [K17L], for which the abundance fitness was -0.087 ± 0.029.

As to EVDTLELTRQVKEKLAYNGICQRIFGEKVLGLSQGSVSDMLSRPKPWSKLTQKGREPFIRMQLWLSDQL [K17Y], the abundance fitness is -0.276 ± 0.076.

Consider EVDTLELTRQVKEKLAKNGICQRIFGEKVLGNSQGSVSDMLSRPKPWSKLTQKGREPFIRMQLWLSDQL [L32N], for which the abundance fitness was -0.305 ± 0.042.

Regarding EVDTLELTRQVKEKLAKNGICQRIFGEKVLGASQGSVSDMLSRPKPWSKLTQKGREPFIRMQLWLSDQL [L32A], the abundance fitness is -0.279 ± 0.078.

As to EVDTLELTRQVKEKLAKNGICQRIFGEKVLGLSQGSVSDMLSRPKPASKLTQKGREPFIRMQLWLSDQL [W47A], the abundance fitness was -0.81 ± 0.06.

With EVDTLELTRQVKEKLAKNGICQRIFGEKVLGLSQGSVSDMLSRPKPWSKLTQKGREPFIRMQLWLSDQW [L69W], the abundance fitness is -0.137 ± 0.044.

As to EVDTLELTRQVKEKLAKNGICQRIFGEKVLGLSQGSVKDMLSRPKPWSKLTQKGREPFIRMQLWLSDQL [S38K], the abundance fitness was 0.06 ± 0.024.
